In US9976167B2, “Group of glycosyltransferases and use thereof” (Shanghai Institutes For Biological Sciences, Chinese …, priority 2012, dated 2018):

Key:
osteoclasts = conditions: cited from earlier work
prostate cancer cells = conditions: cited from earlier work
[1] = Glycosyltransfering activities on ginsengenins and saponins: glycosylation site and specificity (summary); type: biochemical; conditions: for glycosylation site: C-3: Table 2, tetracyclic triterpenoid substrates; for substrate spectrum / specificity: comparison of 3GT1, 3GT2, 3GT3 and 3GT4, Table 6; for effect of the steric configuration of the hydroxyl or glycosyl at C20 on catalytic activity: 20(S)-type versus 20(R)-type substrates
Experimental: More than 100 predicted cDNA sequences of glycosyltransferases were extracted from the published expression profile data of the Panax plant. 60 cDNAs with full length were cloned, expressed, and subjected to the analysis of glycosyltransfering reaction.
(§1) The lysate supernatant of the recombinant yeasts expressing the empty vector was used as control.
(§2) The reaction was conducted under 35° C. for 12 hrs, then stopped by adding 100 μL of butanol. The product were extracted, dried in vacuum, and dissolved in methanol.
(§3) The glycosyltransfering reactions of ginsenosides and ginsengenins were catalyzed by using the lysis supernatant of the recombinant yeasts expressing 3GT1, 3GT2, 3GT3 and 3GT4 as crude enzymes. The lysis supernatant of recombinant E. coli expressing empty vectors was used as control. The 100 μL reaction system is shown as Table 3. The reaction was conducted under 35° C. for 12 hrs, then stopped by adding 100 μL of butanol. The product were extracted, dried in vacuum, and dissolved in methanol.
(§4) The lysate supernatant of the recombinant yeast expressing empty vectors was used as control. The reaction was conducted under 35° C. for 12 hrs, and then stopped by adding 100 μL of butanol. The product were extracted, dried in vacuum, and dissolved in methanol.
The glycosyltransfering reactions of ginsenosides Rh2 and F2 were catalyzed by using the lysate supernatant of the recombinant yeasts expressing 3GT1, 3GT2, 3GT3 and 3GT4 as crude enzymes. The 100 μL reaction system is shown as Table 3. The reaction was conducted under 35° C. for 12 hrs, and then stopped by adding 100 μL of butanol. The product were extracted, dried in vacuum, and dissolved in methanol.

[2] = Glycosyltransfering reaction with crude enzyme, substrate 25-OH-PPD; type: biochemical; conditions: 35° C., 12 hrs, TLC; for glycosylation of C3-OH of 25-OH-PPD (product 3-O-β-(D-glucopyranosyl)-25-OH-PPD): crude enzyme of Example 11; for substrate that could be catalyzed: 25-OH-PPD: crude enzyme: lysate supernatant of recombinant E. coli, UDP-glucose
Experimental: as §3

[3] = Glycosyltransfering reaction with crude enzyme, substrate PPT; type: biochemical; conditions: crude enzyme: lysate supernatant of recombinant E. coli; UDP-glucose, 35° C., 12 hrs; TLC
[4] = as above; type: biochemical; conditions: crude enzyme of Example 11; 35° C., 12 hrs; TLC
Experimental: as §1, §2
(§5) The reaction products were first detected by thin layer chromatography (TLC).
(§6) The converted products of gGT25 were further identified by HPLC (FIG. 10 and FIG. 11). The retention time of peak 2 was identical to that of the CK standard sample; the retention time of peak 3 was identical to that of PPD. […] Peak 1, also present in the profile of the negative control, indicated its irrelevance to the conversion of PPD. 3 peaks were shown in FIG. 11, the retention time of peak 1 was identical to that of F1 standard sample and peak 3 was identical to that of PPT. […] Peak 2, also present in the profile of the negative control, indicated its irrelevance to the conversion of PPT.
(§7) According to the method as in Example 4, the cell lysate of recombinant yeasts expressing gGT13 and gGT30 were used to catalyze PPD and PPT.
as §3

[5] = Glycosyltransfering reaction with crude enzyme, substrate PPD; type: biochemical; conditions: crude enzyme: lysate supernatant of recombinant E. coli; UDP-glucose, 35° C., 12 hrs; TLC
Experimental: as §1, §2, §5, §6, §7
The cell lysis supernatant of the recombinant E. coli was used as crude enzyme to conduct the glycosyltransfering reaction, and the reaction condition was identical to that of Example 4.
The reaction was conducted under 35° C. for 12 hrs. 100 μL of butanol was added to stop the reaction and the products were extracted. Upon vacuum drying, the product was dissolved by methanol. TLC was first used to detect the reaction product.
as §3
The reaction was conducted under 35° C. for 12 hrs, and then stopped by adding 100 μL of butanol. The product were extracted, dried in vacuum, and dissolved in methanol. The reaction products were first detected by thin layer chromatography (TLC) (FIG. 35).

[6] = Glycosyltransfering reaction with crude enzyme, substrate CK; type: biochemical; conditions: 35° C., 12 hrs, TLC; for glycosylation of C3-OH of CK (product F2): crude enzyme of Example 11; for substrate that could be catalyzed: CK: crude enzyme: lysate supernatant of recombinant E. coli, UDP-glucose
Experimental: as §7, §3

[7] = Glycosyltransfering reaction with crude enzyme, substrate lanosterol; type: biochemical; conditions: 35° C., 12 hrs, TLC; for glycosylation of C3-OH of lanosterol (product 3-O-β-(D-glucopyranosyl)-lanosterol): crude enzyme of Example 11; for substrate that could be catalyzed: lanosterol: crude enzyme: lysate supernatant of recombinant E. coli, UDP-glucose
Experimental: as §3

[8] = Glycosyltransfering reaction with crude enzyme, substrate 20(R)-PPD; type: biochemical; conditions: 35° C., 12 hrs, TLC; for catalysis of 20(R)-PPD (product 20(R)-ginsenoside Rh2): crude enzyme of Example 11; for substrate that could be catalyzed: 20(R)-PPD: crude enzyme: lysate supernatant of recombinant E. coli, UDP-glucose
[9] = Glycosyltransfering reaction with crude enzyme, substrate F1; type: biochemical; conditions: 35° C., 12 hrs, TLC; for glycosylation of C3-OH of F1 (product 3-O-β-(D-glucopyranosyl)-F1): crude enzyme of Example 11; for substrate that could be catalyzed: F1: crude enzyme: lysate supernatant of recombinant E. coli, UDP-glucose
Experimental: as §7
as §4, with “lysis” for “lysate”, “of” for “of the”, “E. coli” for “yeast”, “control. The 100 μL reaction system is shown as Table 3.” for “control.”, “hrs,” for “hrs, and”

[10] = Glycosyltransfering reaction with crude enzyme, substrate DM; type: biochemical; conditions: 35° C., 12 hrs, TLC; for glycosylation of C3-OH of DM (product 3-O-β-(D-glucopyranosyl)-Dammarenediol II): crude enzyme of Example 11; for substrate that could be catalyzed: DM: crude enzyme: lysate supernatant of recombinant E. coli, UDP-glucose
Experimental: as §1, §2, §5, §3

Row | Molecule | glycosylation site: C-3 [1] | substrate spectrum / specificity [1] | glycosylation of C3-OH of 25-OH-PPD (product 3-O-β-(D-glucopyranosyl)-25-OH-PPD) [2] | substrate that could be catalyzed: 25-OH-PPD [2] | substrate that could be catalyzed: PPT [3] | glycosylation of C3-OH of PPT (product 3-O-β-(D-glucopyranosyl)-PPT) [4] | substrate that could be catalyzed: PPD [5] | glycosylation of C3-OH of CK (product F2) [6] | effect of the steric configuration of the hydroxyl or glycosyl at C20 on catalytic activity [1] | glycosylation of C3-OH of lanosterol (product 3-O-β-(D-glucopyranosyl)-lanosterol) [7] | substrate that could be catalyzed: lanosterol [7] | catalysis of 20(R)-PPD (product 20(R)-ginsenoside Rh2) [8] | substrate that could be catalyzed: 20(R)-PPD [8] | glycosylation of C3-OH of F1 (product 3-O-β-(D-glucopyranosyl)-F1) [9] | substrate that could be catalyzed: F1 [9] | glycosylation of C3-OH of DM (product 3-O-β-(D-glucopyranosyl)-Dammarenediol II) [10] | substrate that could be catalyzed: DM [10] | substrate that could be catalyzed: CK [6] | other results
1 | CC(C)=CCC[C@@](C)(O)[C@H]1CC[C@]2(C)[C@@H]1[C@H](O)C[C@@H]1[C@@]3(C)CC[C@H](O[C@@H]4O[C@H](CO)[C@@H](O)[C@H](O)[C@H]4O)C(C)(C)[C@@H]3CC[C@]12C [R-type ginsenoside Rh2, 3-O-β-(D-glucopyranosyl)-20(R)-protopanaxadiol] |  |  |  |  |  |  |  |  |  |  |  |  |  |  |  |  |  |  | cytotoxicity to osteoclasts (osteoclasts): without any cytotoxicity; inhibition of the generation of osteoclasts (osteoclasts): selectively inhibit; inhibition of prostate cancer cells (prostate cancer cells): quite poor
2 | 3GT3: glycosyltransferase protein with 497 amino acids, SEQ ID NO.: 41; homology with a Medicago truncatula glycosyltransferase higher than 99% (protein, listed as Medicago truncatula, 3GT3) MEGVEVEQPLKVYFIPFLASGHMIPLFDIATMFASRGQQVTVITTPANAKSLTKSLSSDAPSFLRLHTVDFPSQQVGLPEGIESMSSTTDPTTTWKIHTGAMLLKEPIGDFIENDPPDCIISDSTYPWVNDLADKFQIPNITFNGLCLFAVSLVETLKTNNLLKSQTDSDSDSSSFVVPNFPHHITLCGKPPKVIGIFMGMMLETVLKSKALIINNFSELDGEECIQHYEKATGHKVWHLGPTSLIRKTAQEKSERGNEGAVNVHESLSWLDSERVNSVLYICFGSINYFSDKQLYEMACAIEASGHPFIWVVPEKKGKEDESEEEKEKWLPKGFEERNIGKKGLIIRGWAPQVKILSHPAVGGFMTHCGGNSTVEAVSAGVPMITWPVHGDQFYNEKLITQFRGIGVEVGATEWCTSGVAERKKLVSRDSIEKAVRRLMDGGDEAENIRLRAREFGEKAIQAIQEGGSSYNNLLALIDELKRSRDLKRLRDLKLDD | ✓ | least number of substrates | could be glycosylated | ✓ | ✓ | could be glycosylated | ✓ | further glycosylating its C3-OH |  |  |  |  |  |  |  |  |  |  | 
3 | 3GT2: glycosyltransferase protein with 495 amino acids, SEQ ID NO.: 24; homology with UGT73C12 of Barbarea vulgaris higher than 99% (protein, listed as Barbarea vulgaris, 3GT2) MVSEITHKSYPLHFVLFPFMAQGHMIPMVDIARLLAQRGVKITIVTTPHNAARFKNVLSRAIESGLPISIVQVKLPSQEAGLPEGNETLDSLVSMELMIHFLKAVNMLEEPVQKLFEEMSPQPSCIISDFCLPYTSKIAKKFNIPKILFHGMCCFCLLCMHILRKNREIVENLKSDKEHFVVPYFPDRVEFTRPQVPVATYVPGDWHEITEDMVEADKTSYGVIVNTYQELEPAYANDYKEARSGKAWTIGPVSLCNKVGADKAERGNKADIDQDECLKWLNSKEEGSVLYVCLGSICNLPLSQLKELGLGLEESQRPFIWVIRGWEKNKELHEWFSESGFEERIKDRGLLIKGWAPQMLILSHHSVGGFLTHCGWNSTLEGLTAGLPLLTWPLFADQFCNEKLAVQVLKAGVSAGVDQPMKWGEEEKIGVLVDKEGVKKAVEELMGESDDAKEIRRRAKELGELAHKAVEEGGSSHSNITSLLEDIMQLAQSNN | ✓ | most number of substrates | could be glycosylated | ✓ | ✓ | could be glycosylated | ✓ | further glycosylating its C3-OH | not affected | could be glycosylated | ✓ | could catalyze | ✓ | could be glycosylated | ✓ | could be glycosylated | ✓ | ✓ | 
4 | 3GT1: glycosyltransferase protein with 495 amino acids, SEQ ID NO.: 22; homology with UGT73C10 of Barbarea vulgaris higher than 99% (protein, listed as Barbarea vulgaris, 3GT1) MVSEITHKSYPLHFVLFPFMAQGHMIPMVDIARLLAQRGVKITIVTTPHNAARFENVLSRAIESGLPISIVQVKLPSQEAGLPEGNETFDSLVSTKLLVPFFKAVNMLEEPVQKLFEEMSPQPSCIISDFCLPYTSKIAKKFNIPKILFHGMCCFCLLCMHVLRKNREILENLKSDKEHFVVPYFPDRVEFTRPQVPLATYVPGEWHEIKEDMVEADKTSYGVIVNTYQELEPAYANGYKEARSGKAWTIGPVSLCNKVGADKAERGNKADIDQDECLKWLDSKEEGSVLYVCLGSICSLPLSQLKELGLGLEESQRPFIWVVRGWEKNKELLEWFSESGFEERVKDRGLLIKGWSPQMLILAHHSVGGFLTHCGWNSTLEGITSGVPLLTWPLFGDQFCNQKLVVQVLKVGVSAGVEEVTNWGEEEKIGVLVDKEGVKKAVEELMGESDDAKEIRKRVKELGQLAHKAVEEGGSSHSNITSLLEDIMQLAQPNN | ✓ | most number of substrates | could be glycosylated | ✓ | ✓ | could be glycosylated | ✓ | further glycosylating its C3-OH | not affected | could be glycosylated | ✓ | could catalyze | ✓ | could be glycosylated | ✓ | could be glycosylated | ✓ | ✓ | 
